This is an account of results in doi:10.1101/2021.02.16.431021 (bioRxiv, 2021).

The series deals with the molecule itself. As to the kind of experiment: crystal structure.

B1: SARS-CoV main protease (M^pro) (enzyme)
chain: SGFRKMAFPSGKVEGCMVQVTCGTTTLNGLWLDDTVYCPRHVICTAEDMLNPNYEDLLIRKSNHSFLVQAGNVQLRVIGHSMQNCLLRLKVDTSNPKTPKYKFVRIQPGQTFSVLACYNGSPSGVYQCAMRPNHTIKGSFLNGSCGSVGFNIDYDCVSFCYMHHMELPTGVHAGTDLEGKFYGPFVDRQTAQAAGTDTTITLNVLAWLYAAVINGDRWFLNRFTTTLNDFNLVAMKYNYEPLTQDHVDILGPLSAQTGIAVLDMCAALKELLQNGMNGRTILGSTILEDEFTPFDVVRQCSGVTFQ
With B1, the binding result is “binds”.
